Measurements from patent US20050159590A1.

Molecular target: IL-1 receptor (type I) on T24 cells (UniProt P14778)
Assay: cell-based or functional assay

UniProt P14778, sequence (P14778 18-569 limits assumed): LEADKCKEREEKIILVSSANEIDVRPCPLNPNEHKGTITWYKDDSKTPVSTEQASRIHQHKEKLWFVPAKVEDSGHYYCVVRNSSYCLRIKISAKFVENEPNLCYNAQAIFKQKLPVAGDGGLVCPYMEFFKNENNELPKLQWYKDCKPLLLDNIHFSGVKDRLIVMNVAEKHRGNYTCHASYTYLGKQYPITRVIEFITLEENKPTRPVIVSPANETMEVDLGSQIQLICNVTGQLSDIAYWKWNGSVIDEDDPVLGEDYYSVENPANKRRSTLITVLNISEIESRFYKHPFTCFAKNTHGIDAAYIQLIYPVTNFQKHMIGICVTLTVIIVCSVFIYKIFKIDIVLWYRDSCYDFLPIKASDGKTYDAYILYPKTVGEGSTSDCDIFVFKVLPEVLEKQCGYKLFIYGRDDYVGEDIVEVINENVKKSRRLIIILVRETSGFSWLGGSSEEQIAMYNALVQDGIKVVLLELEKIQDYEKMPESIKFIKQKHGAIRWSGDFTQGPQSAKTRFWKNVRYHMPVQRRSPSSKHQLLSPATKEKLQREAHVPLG

commercial IL-1Ra WT (obtained from Prospec Tany TechnoGene Ltd (Rehovot Israel)) (from UniProt P18510 26-177) (ligand)
inhibition of IL-1β-induced secretion of IL-8 from T24 cells, at 200 µg/ml: > 70% | inhibition of IL-1β-induced secretion of IL-8 from T24 cells, at 600 µg/ml or above: 100%

His-tagged IL-1Ra wild type (without signal peptide) from E. coli (from UniProt P18510 26-177) (ligand)
inhibition of IL-1β-induced secretion of IL-8 from T24 cells, at 200 µg/ml: 70% | inhibition of IL-1β-induced secretion of IL-8 from T24 cells, at 600 µg/ml: 50% | inhibition of IL-1β-induced secretion of IL-8 from T24 cells, at 1800 µg/ml: 100% | inhibition of IL-1β-induced secretion of IL-8 from T24 cells, at 8000 µg/ml: 100%
